{"source": "paper PMC10393192", "about": "“Structure and DNA-bridging activity of the essential Rec114–Mei4 trimer interface”", "molecules": {"B1": {"name": "dsDNA80 (dsDNA)", "DNA 1": "CTAGTATAGAGCCGGCGCGCCATGTCTAGATAGCGTTAGGTCTGCCGAATAGTACTACTCGGATCCCGAGCGAACCACGC", "DNA 2": "GCGTGGTTCGCTCGGGATCCGAGTAGTACTATTCGGCAGACCTAACGCTATCTAGACATGGCGCGCCGGCTCTATACTAG"}, "B2": {"name": "dsDNA20 (dsDNA)", "DNA 1": "AAAGATGTCCTAGCAATGTA", "DNA 2": "TACATTGCTAGGACATCTTT"}}, "key": {"[1]": {"target": "T1, Rec114(388-428) K399A/R400A;Mei4N K399A;R400A (Saccharomyces cerevisiae;Saccharomyces cerevisiae) (UniProt P32841+P29467)", "T1 sequence 1": "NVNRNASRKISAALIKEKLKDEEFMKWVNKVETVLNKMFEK", "T1 sequence 2": "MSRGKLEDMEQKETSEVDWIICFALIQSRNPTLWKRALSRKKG", "experiment": "EMSA", "details": "EMSA: 25 mM Tris-HCl pH 7.4, 100 mM NaCl, 5 ng DNA, 20 min, room temperature; AFM: 25 mM HEPES-NaOH pH 7.4, 5 mM MgCl2, 50 mM NaCl, 10% glycerol, 30 min, RT …"}, "[2]": {"target": "T2, Rec114(388-428);Mei4(13-43) (Saccharomyces cerevisiae;Saccharomyces cerevisiae) (UniProt P32841+P29467)", "T2 sequence 1": "T1 sequence 1 with A12K, A13R", "T2 sequence 2": "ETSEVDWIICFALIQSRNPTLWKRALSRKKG", "experiment": "EMSA", "details": "EMSA: 25 mM Tris-HCl pH 7.4, 100 mM NaCl, 5 ng DNA, 20 min, room temperature; AFM: 25 mM HEPES-NaOH pH 7.4, 5 mM MgCl2, 50 mM NaCl, 10% glycerol, 30 min, RT …"}, "[3]": {"target": "T3, Rec114(388-428) K403A/K407A;Mei4N K403A;K407A (Saccharomyces cerevisiae;Saccharomyces cerevisiae) (UniProt P32841+P29467)", "T3 sequence 1": "T1 sequence 1 with A12K, A13R, K16A, K20A", "T3 sequence 2": "T1 sequence 2", "experiment": "EMSA", "details": "EMSA: 25 mM Tris-HCl pH 7.4, 100 mM NaCl, 5 ng DNA, 20 min, room temperature; AFM: 25 mM HEPES-NaOH pH 7.4, 5 mM MgCl2, 50 mM NaCl, 10% glycerol, 30 min, RT …"}, "[4]": {"target": "T4, Rec114C;Mei4N-ybbR-LD650 (Saccharomyces cerevisiae;Saccharomyces cerevisiae) (UniProt P32841+P29467)", "T4 sequence 1": "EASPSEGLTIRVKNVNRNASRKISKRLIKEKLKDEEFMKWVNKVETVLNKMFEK", "T4 sequence 2": "T1 sequence 2", "experiment": "EMSA", "details": "EMSA: 25 mM Tris-HCl pH 7.4, 100 mM NaCl, 5 ng DNA, 20 min, room temperature; AFM: 25 mM HEPES-NaOH pH 7.4, 5 mM MgCl2, 50 mM NaCl, 10% glycerol, 30 min, RT …"}, "[5]": {"target": "T5, Rec114(388-428) K417A/K424A;Mei4N K417A;K424A (Saccharomyces cerevisiae;Saccharomyces cerevisiae) (UniProt P32841+P29467)", "T5 sequence 1": "T1 sequence 1 with A12K, A13R, K30A, K37A", "T5 sequence 2": "T1 sequence 2", "experiment": "EMSA", "details": "EMSA: 25 mM Tris-HCl pH 7.4, 100 mM NaCl, 5 ng DNA, 20 min, room temperature; AFM: 25 mM HEPES-NaOH pH 7.4, 5 mM MgCl2, 50 mM NaCl, 10% glycerol, 30 min, RT …"}, "[6]": {"target": "T6, Rec114C;Mei4N-ybbR (Saccharomyces cerevisiae;Saccharomyces cerevisiae) (UniProt P32841+P29467)", "T6 sequence 1": "T4 sequence 1", "T6 sequence 2": "T1 sequence 2", "experiment": "EMSA", "details": "EMSA: 25 mM Tris-HCl pH 7.4, 100 mM NaCl, 5 ng DNA, 20 min, room temperature; AFM: 25 mM HEPES-NaOH pH 7.4, 5 mM MgCl2, 50 mM NaCl, 10% glycerol, 30 min, RT …"}, "[7]": {"target": "T7, Rec114(388-428) R395A/K396A;Mei4N R395A;K396A (Saccharomyces cerevisiae;Saccharomyces cerevisiae) (UniProt P32841+P29467)", "T7 sequence 1": "T1 sequence 1 with R8A, K9A, A12K, A13R", "T7 sequence 2": "T1 sequence 2", "experiment": "EMSA", "details": "EMSA: 25 mM Tris-HCl pH 7.4, 100 mM NaCl, 5 ng DNA, 20 min, room temperature; AFM: 25 mM HEPES-NaOH pH 7.4, 5 mM MgCl2, 50 mM NaCl, 10% glycerol, 30 min, RT …"}, "[8]": {"target": "T8, mREC114C;mMEI4N (Mus musculus;Mus musculus) (UniProt Q9CWH4+Q8BRM6)", "T8 sequence 1": "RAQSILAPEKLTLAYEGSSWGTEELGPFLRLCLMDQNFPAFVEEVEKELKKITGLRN", "T8 sequence 2": "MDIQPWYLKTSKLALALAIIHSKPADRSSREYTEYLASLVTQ", "experiment": "EMSA", "details": "EMSA: 25 mM Tris-HCl pH 7.4, 100 mM NaCl, 5 ng DNA, 20 min, room temperature; AFM: 25 mM HEPES-NaOH pH 7.4, 5 mM MgCl2, 50 mM NaCl, 10% glycerol, 30 min, RT …"}, "[9]": {"target": "T9, Rec114(388-428);Mei4N (Saccharomyces cerevisiae;Saccharomyces cerevisiae) (UniProt P32841+P29467)", "T9 sequence 1": "T1 sequence 1 with A12K, A13R", "T9 sequence 2": "T1 sequence 2", "experiment": "EMSA", "details": "EMSA: 25 mM Tris-HCl pH 7.4, 100 mM NaCl, 5 ng DNA, 20 min, room temperature; AFM: 25 mM HEPES-NaOH pH 7.4, 5 mM MgCl2, 50 mM NaCl, 10% glycerol, 30 min, RT …"}, "[10]": {"target": "T10, Rec114(386-428);Mei4N (Saccharomyces cerevisiae;Saccharomyces cerevisiae) (UniProt P32841+P29467)", "T10 sequence 1": "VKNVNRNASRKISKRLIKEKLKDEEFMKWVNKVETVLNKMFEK", "T10 sequence 2": "T1 sequence 2", "experiment": "EMSA", "details": "EMSA: 25 mM Tris-HCl pH 7.4, 100 mM NaCl, 5 ng DNA, 20 min, room temperature; AFM: 25 mM HEPES-NaOH pH 7.4, 5 mM MgCl2, 50 mM NaCl, 10% glycerol, 30 min, RT …"}, "[11]": {"target": "T11, Rec114(325-428);Mei4(1-90) (Saccharomyces cerevisiae;Saccharomyces cerevisiae) (UniProt P32841+P29467)", "T11 sequence 1": "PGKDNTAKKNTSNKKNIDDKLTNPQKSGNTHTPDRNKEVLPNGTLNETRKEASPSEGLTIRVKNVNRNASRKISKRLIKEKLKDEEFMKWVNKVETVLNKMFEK", "T11 sequence 2": "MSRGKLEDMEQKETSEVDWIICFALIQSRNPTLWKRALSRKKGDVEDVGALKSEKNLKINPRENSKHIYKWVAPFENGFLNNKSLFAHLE", "experiment": "EMSA", "details": "EMSA: 25 mM Tris-HCl pH 7.4, 100 mM NaCl, 5 ng DNA, 20 min, room temperature; AFM: 25 mM HEPES-NaOH pH 7.4, 5 mM MgCl2, 50 mM NaCl, 10% glycerol, 30 min, RT …"}, "[12]": {"target": "T12, Rec114C;Mei4N (Saccharomyces cerevisiae;Saccharomyces cerevisiae) (UniProt P32841+P29467)", "T12 sequence 1": "T4 sequence 1", "T12 sequence 2": "T1 sequence 2", "experiment": "EMSA", "details": "EMSA: 25 mM Tris-HCl pH 7.4, 100 mM NaCl, 5 ng DNA, 20 min, room temperature; AFM: 25 mM HEPES-NaOH pH 7.4, 5 mM MgCl2, 50 mM NaCl, 10% glycerol, 30 min, RT …"}, "[13]": {"target": "T13, Rec114C;Mei4N (Saccharomyces cerevisiae;Saccharomyces …, UniProt P32841;P29467 375-428;1-43, |)", "T13 sequence 1": "T4 sequence 1", "T13 sequence 2": "T1 sequence 2", "experiment": "EMSA; C50; EMSA: 25 mM Tris-HCl pH 7.4, 100 mM NaCl, 5 ng DNA, 20 min, room temperature; AFM: 25 mM HEPES-NaOH pH 7.4, 5 mM MgCl2, 50 mM NaCl, 10% glycerol, 30 min, RT; optical trap: same buffer plus 5 nM SYTOX Orange, RT", "details": "protein: recombinant;recombinant; tags: 6xHis-SUMO removed by Ulp1 (tagged chain);6xHis-SUMO removed by Ulp1 when on this chain; chain copies: 2;1; blunt"}, "[14]": {"target": "T13, Rec114C;Mei4N", "experiment": "EMSA; C50; main text gives ~800 nM; EMSA: 25 mM Tris-HCl pH 7.4, 100 mM NaCl, 5 ng DNA, 20 min, room temperature; AFM: 25 mM HEPES-NaOH pH 7.4, 5 mM MgCl2, 50 mM NaCl, 10% glycerol, 30 min, RT; optical trap: same buffer plus 5 nM SYTOX Orange, RT", "details": "protein: recombinant;recombinant; tags: 6xHis-SUMO removed by Ulp1 (tagged chain);6xHis-SUMO removed by Ulp1 when on this chain; chain copies: 2;1; blunt"}}, "note": "Substitutions are numbered along the chain they refer to.", "data": [{"molecule": "ATCTGGCTCGCCTGACGGGATGCGACGAATTTTCGCCGCCCCATAAAGTACGCCCACGACTCGTTCGCACTGGCCCGTGCCGTGGAGTAGCTCATCTGGGCGTAATTCCGGGAAAGCTGCTCATACGAGACACCCAGCCCGGCAGCGATAT (double strand) [150-bp DNA]", "values": [{"measurement": "K half", "setting": "[1]", "result": 2000, "unit": "nM"}, {"measurement": "K half", "setting": "[2]", "result": 100, "unit": "nM"}, {"measurement": "K half", "setting": "[3]", "result": 1000, "unit": "nM"}, {"measurement": "K half", "setting": "[4]", "result": 90, "unit": "nM"}, {"measurement": "K half", "setting": "[5]", "result": 900, "unit": "nM"}, {"measurement": "K half", "setting": "[6]", "result": 90, "unit": "nM"}, {"measurement": "K half", "setting": "[7]", "result": 1000, "unit": "nM"}, {"measurement": "binding", "setting": "[8]", "result": "binds more weakly"}, {"measurement": "K half", "setting": "[9]", "result": 110, "unit": "nM"}, {"measurement": "K half", "setting": "[10]", "result": 110, "unit": "nM"}, {"measurement": "K half", "setting": "[11]", "result": 90, "unit": "nM"}, {"measurement": "K half", "setting": "[12]", "result": 90, "unit": "nM"}]}, {"molecule": "B1", "values": [{"measurement": "apparent K (half saturation)", "setting": "[13]", "result": "100 ± 20", "unit": "nM"}]}, {"molecule": "B2", "values": [{"measurement": "apparent K (half saturation)", "setting": "[14]", "result": "600 ± 100", "unit": "nM"}]}]}
